{"source": "patent US20240376180A1", "target": "SARS-CoV spike on S-pseudotyped MLV virions (SARS-CoV)", "test": "cell-based or functional assay", "data": [{"substance": "COVA1-16 (antibody)", "values": [{"measurement": "percent neutralization of pseudovirus at 200 µg, antibody alone", "value": 28, "unit": "%"}]}]}
